The values that follow come from FireProtDB.

The conditions of the data set: Capra hircus; pH 7; 25 °C; GdnHCl; CD; sodium cacodylate 50 mM; NaCl 50 mM; reversible: yes; whole UniProt chain shown.

B1: Alpha-lactalbumin wild type, P00712 (protein)
chain: MMSFVSLLLVGILFHATQAEQLTKCEVFQKLKDLKDYGGVSLPEWVCTAFHTSGYDTQAIVQNNDSTEYGLFQINNKIWCKDDQNPHSRNICNISCDKFLDDDLTDDIVCAKKILDKVGINYWLAHKALCSEKLDQWLCEKL
As for B1, the denaturant m value came to 2.2 kcal/mol/M, the “denaturant midpoint (higher = more stable)” value is 2.6 M and the unfolding free energy came to 5.7 kcal/mol.
